The source of these data is paper PMC7102495.

Assay in all cases: FRET or BRET
Experiment [1] has as its target ^NDD_(BaeN)+mTurquoise2 (Bacillus amyloliquefaciens FZB42 | not stated).
The target of experiment [2] is ^NDD_(DifG)+mTurquoise2 (Bacillus amyloliquefaciens FZB42 | not stated).
For experiment [3], the target named is ^NDD_(MlnC)+mTurquoise2 (Bacillus amyloliquefaciens FZB42 | not stated).

Take Venus+^CDD_(BaeM): the Kd (in general, a measure of binding affinity in units of concentration) in experiment [1] was 7.4 µM.
Consider Venus+^CDD_(DifF), for which the Kd in experiment [2] is 6.3 µM.
As to Venus+^CDD_(MlnB), the Kd in experiment [3] worked out at 2.9 µM.
